Broadly, the Kd is the free concentration of one partner at which half of the binding sites on the other are occupied at equilibrium, for simple one-to-one binding. Low readings indicate higher affinity, high ones lower affinity.

The target of one assay is T1, Human B7-H3 (human, UniProt Q5ZPR3 29-461, limits assumed).
T1 construct: also called human B7-H3 protein; CD276
T1 sequence (looked up): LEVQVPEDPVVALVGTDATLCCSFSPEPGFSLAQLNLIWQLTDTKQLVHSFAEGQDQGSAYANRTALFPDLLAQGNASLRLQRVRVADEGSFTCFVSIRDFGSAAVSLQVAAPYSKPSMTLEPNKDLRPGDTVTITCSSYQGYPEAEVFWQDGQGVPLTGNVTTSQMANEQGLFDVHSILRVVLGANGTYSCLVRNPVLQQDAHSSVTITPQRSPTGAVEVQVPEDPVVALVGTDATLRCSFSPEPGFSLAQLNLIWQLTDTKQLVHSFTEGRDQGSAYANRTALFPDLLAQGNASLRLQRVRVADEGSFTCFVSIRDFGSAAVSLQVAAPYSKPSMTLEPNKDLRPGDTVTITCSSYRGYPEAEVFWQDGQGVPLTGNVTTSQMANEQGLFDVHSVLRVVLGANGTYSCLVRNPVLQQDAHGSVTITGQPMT
The assay is described as follows: surface plasmon resonance. In general terms: In SPR one partner is held on a chip, and binding of the other changes the refractive index at the surface.

For another assay, the target named is T2, Mouse B7-H3 (mouse, UniProt Q8VE98 29-244, limits assumed).
T2 construct: also called mouse B7-H3 protein
T2 sequence (looked up): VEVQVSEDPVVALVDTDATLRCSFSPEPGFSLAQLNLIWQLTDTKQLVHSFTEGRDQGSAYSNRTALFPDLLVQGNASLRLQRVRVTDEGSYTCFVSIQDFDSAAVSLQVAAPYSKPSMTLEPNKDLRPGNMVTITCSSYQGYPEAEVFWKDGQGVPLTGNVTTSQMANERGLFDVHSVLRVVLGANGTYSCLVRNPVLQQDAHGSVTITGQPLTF
The assay is described as follows: surface plasmon resonance.

B1: 12B4 mAb (antibody, V domains shown)
VH: QVQLQQPGAELVKPGASVKLSCKASGYTFTSYWMHWVKQRPGQGLEWIGMIHPNSGSTNYNEKFKSKATLTVDKSSSTAYMQLSSLTSEDSAVYYCARYYYGSSYAMDYWGQGTSVTVS
VL: QIVLTQSPAIMSASPGEKVTITCSASSSVSYMHWFQQKPGTSPKLWIYSTSNLASGVPARFSGSGSGTSYSLTISRMEAEDAATYYCQQRSSYPYTFGGGTKLEIKR
notes: Mouse hybridoma mAb, IgG3 with kappa chain; also called 124; 1214
Turning to B1, the Kd was 5.62 nM with Human B7-H3 and 1.71 nM in the assay with Mouse B7-H3.

B2: 1G5 mAb (antibody, V domains shown)
VH: QVQLQQPGAELVKPGASVKLSCKASGYTFTSYWMHWVKQRPGQGLEWIGMIHPNSGSTNYNEKFKSKATLTVDKSSSTAYMQLSSLTSEDSAVYYCARGGYFDYWGQGTTLTVSS
VL: DIVMTQSQKFMSTSVGDRVSVTCKASQNVGTNVAWYQQKPGQSPKALIYSASYRYSGVPDRFTGSGSGTDFTLTISNVQSEDLAEYFCQQYNSYPYTFGGGTKLEIKR
notes: Mouse hybridoma mAb, IgG3 with kappa chain
In the case of B2, the equilibrium dissociation constant (Kd) with Human B7-H3 was determined as 4.86 nM; in the assay with Mouse B7-H3, 0.81 nM.

B3: 15F9 mAb (antibody, V domains shown)
VH: QVQLQQPGAELVKPGASVKLSCKASGYTFTNYWMHWVKQRPGQGLEWIGMIHPNSGSTNYNEKFKSKATLTVDKSSSTAYMQLSSLTSEDSAVYYCARRGDGDYWGQGTTLTVSS
VL: DIQMTRHPSSLSASMGERVSLTCRASQEISGYLSWLQQKPDGTIKRLIYAASTLDSGVPKRFSGSRSGSDYSLTISSLESEDFADYYCLQYASYPYTFGGGTKLEI
notes: as for B2
As for B3, the Kd with Human B7-H3 was determined as 4.51 nM; with Mouse B7-H3 it was 1.76 nM.

B4: 8B12 mAb (antibody, V domains shown)
VH: QVQLQQPGAELVKPGASVKMSCKASGYTFTSYWITWVKQRPGQGLEWIGDIYPGSGSTNYNEKFKSKATLTVDTSSSTAYMQLSSLTSEDSAVYYCARGGTRFSPFAYWGQGTLVTVSA
VL: DVLMTQTPLSLPVSLGDQASISCRSSQSIVHSNGNTYLEWYLQKPGQSPKLLIYKVSNRFSGVPDRFSGSGSGTDFTLKISRVEAEDLGVYYCFQGSHVPWTFGGGTKLEIKR
notes: Mouse hybridoma mAb, IgG3 with kappa chain; also called 8K12; 81812
Turning to B4, the dissociation constant Kd in the assay with Human B7-H3 is 0.32 nM; with Mouse B7-H3, 4.01 nM.

B5: 23B2 mAb (antibody, V domains shown)
VH: QVQLQQPGAELVKPGASVKLSCKASGYTFTSYWMHWVKQRPGQGLEWIGMIHPNSGSTNYNEKFKSKATLTVDKSSSTAYMQLSSLTSEDSAVYYCARESRQLDYWGQGTTLTVSS
VL: QIVLTQSPAIMSASPGEKVTMTCSASSSISYMHWYQQKPGTSPKRWIYDTSKLASGVPARFSGSGSGTSYSLTISSMEAEDAATYYCHQRSSYPLTFGAGTKLELK
notes: Mouse hybridoma mAb, IgG1 with kappa chain; also called 231B2
On to B5, for which the Kd was found to be 11.1 nM in the assay with Human B7-H3 and 10.2 nM with Mouse B7-H3.

B6: 24D12 mAb (antibody, V domains shown)
VH: QVQLQQPGAELVKPGASVKLSCKASGYTFTSYWMHWVKQRPGQGLEWIGMIHPNSGSTNYNEKFKSKATLTVDKSSSTAYMQLSSLTSEDSAVYYCANYYGTNVWGTGTTVTVS
VL: DIVLTQSPASLAVSLGQRATISYRASKSVSTSGYSYMHWNQQKPGQPPRLLIYLVSNLESGVPARFSGSGSGTDFTLNIHPVEEEDAATYYCQHIREAYTFGRG
Consider B6, for which the figures for the dissociation constant Kd with Human B7-H3 and with Mouse B7-H3 were 4.51 nM and 1.76 nM, respectively.

The record behind these values is patent US20250320269A1 (ALBERT EINSTEIN COLLEGE OF MEDICINE, published 2025).
